{
  "source": "patent US20230391861A1",
  "about": "(Stanford University, published 2023)",
  "molecules": {"B1": {"name": "T23 nanobody (VHH)", "VHH": "QVQLQESGGGLVQAGGSLRLSCAASGNIFAYYIMGWYRQAPGKERELVATIDIGGNTNYADSVKGRFTISRDNAKNTVYLQMNSLKPEDTAVYYCAVQAVPYRYRRYWGQGTQVTVSS", "notes": "also called 23T"}, "B2": {"name": "TI23 nanobody (VHH)", "VHH": "B1 VHH with T77N, Y102I"}, "B3": {"name": "Nanobody clone 23 (VHH)", "VHH": "B1 VHH with T50G, R105H, R106G", "notes": "Initial clone from the synthetic yeast display library; also called Nb23; NB23"}},
  "key": {"[1]": {"molecular_target": "T1, PTCH1 on NIH-3T3 / 3T3-Light2 cells (UniProt Q61115 1-1434, limits assumed)", "T1 sequence (looked up)": "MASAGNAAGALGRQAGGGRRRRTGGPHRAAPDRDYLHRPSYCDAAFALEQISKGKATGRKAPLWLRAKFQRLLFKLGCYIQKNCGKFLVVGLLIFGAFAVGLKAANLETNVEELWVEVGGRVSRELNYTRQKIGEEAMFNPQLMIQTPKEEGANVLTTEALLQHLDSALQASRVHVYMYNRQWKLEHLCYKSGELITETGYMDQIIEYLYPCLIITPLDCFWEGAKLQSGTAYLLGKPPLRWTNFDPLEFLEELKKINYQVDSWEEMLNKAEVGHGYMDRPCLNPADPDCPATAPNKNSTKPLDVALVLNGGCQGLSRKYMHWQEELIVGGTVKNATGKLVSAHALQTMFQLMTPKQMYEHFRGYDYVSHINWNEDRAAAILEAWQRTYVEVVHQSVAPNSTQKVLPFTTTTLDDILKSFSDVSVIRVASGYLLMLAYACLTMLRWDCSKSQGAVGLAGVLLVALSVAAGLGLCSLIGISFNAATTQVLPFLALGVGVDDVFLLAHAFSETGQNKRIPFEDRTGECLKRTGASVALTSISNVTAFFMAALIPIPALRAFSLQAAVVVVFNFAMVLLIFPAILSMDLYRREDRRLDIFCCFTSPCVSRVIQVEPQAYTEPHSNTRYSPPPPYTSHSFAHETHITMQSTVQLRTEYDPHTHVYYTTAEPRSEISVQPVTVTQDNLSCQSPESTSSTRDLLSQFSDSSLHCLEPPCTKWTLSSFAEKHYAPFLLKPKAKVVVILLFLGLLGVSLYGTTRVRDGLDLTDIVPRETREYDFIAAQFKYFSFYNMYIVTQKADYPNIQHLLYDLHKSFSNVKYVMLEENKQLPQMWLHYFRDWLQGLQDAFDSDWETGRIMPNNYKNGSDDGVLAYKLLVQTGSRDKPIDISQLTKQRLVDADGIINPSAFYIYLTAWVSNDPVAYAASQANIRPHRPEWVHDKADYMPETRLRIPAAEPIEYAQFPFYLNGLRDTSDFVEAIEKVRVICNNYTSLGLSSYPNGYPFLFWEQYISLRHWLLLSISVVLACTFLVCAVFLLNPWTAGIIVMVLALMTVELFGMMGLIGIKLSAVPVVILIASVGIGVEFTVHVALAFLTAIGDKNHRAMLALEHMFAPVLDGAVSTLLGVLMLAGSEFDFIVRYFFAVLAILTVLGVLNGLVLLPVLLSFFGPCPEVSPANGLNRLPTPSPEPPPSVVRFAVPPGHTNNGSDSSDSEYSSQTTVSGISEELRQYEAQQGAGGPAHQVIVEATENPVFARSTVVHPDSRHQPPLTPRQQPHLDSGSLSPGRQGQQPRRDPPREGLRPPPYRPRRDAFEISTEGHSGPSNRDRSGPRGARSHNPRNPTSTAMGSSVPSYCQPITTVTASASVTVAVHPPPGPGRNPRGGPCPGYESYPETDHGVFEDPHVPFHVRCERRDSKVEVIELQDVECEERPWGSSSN", "test": "cell-based or functional assay"}, "[2]": {"molecular_target": "T2, Ptch1-C-NNQ (Ptch1-C with D499N, D500N, E1081Q) (mouse, UniProt Q61115 1-618; Q61115 712-1173)", "T2 construct": "range 1-618;range 712-1173; also called PTCH1-NNQ; NNQ variant; not shown: 1D4 tag", "T2 sequence (looked up)": "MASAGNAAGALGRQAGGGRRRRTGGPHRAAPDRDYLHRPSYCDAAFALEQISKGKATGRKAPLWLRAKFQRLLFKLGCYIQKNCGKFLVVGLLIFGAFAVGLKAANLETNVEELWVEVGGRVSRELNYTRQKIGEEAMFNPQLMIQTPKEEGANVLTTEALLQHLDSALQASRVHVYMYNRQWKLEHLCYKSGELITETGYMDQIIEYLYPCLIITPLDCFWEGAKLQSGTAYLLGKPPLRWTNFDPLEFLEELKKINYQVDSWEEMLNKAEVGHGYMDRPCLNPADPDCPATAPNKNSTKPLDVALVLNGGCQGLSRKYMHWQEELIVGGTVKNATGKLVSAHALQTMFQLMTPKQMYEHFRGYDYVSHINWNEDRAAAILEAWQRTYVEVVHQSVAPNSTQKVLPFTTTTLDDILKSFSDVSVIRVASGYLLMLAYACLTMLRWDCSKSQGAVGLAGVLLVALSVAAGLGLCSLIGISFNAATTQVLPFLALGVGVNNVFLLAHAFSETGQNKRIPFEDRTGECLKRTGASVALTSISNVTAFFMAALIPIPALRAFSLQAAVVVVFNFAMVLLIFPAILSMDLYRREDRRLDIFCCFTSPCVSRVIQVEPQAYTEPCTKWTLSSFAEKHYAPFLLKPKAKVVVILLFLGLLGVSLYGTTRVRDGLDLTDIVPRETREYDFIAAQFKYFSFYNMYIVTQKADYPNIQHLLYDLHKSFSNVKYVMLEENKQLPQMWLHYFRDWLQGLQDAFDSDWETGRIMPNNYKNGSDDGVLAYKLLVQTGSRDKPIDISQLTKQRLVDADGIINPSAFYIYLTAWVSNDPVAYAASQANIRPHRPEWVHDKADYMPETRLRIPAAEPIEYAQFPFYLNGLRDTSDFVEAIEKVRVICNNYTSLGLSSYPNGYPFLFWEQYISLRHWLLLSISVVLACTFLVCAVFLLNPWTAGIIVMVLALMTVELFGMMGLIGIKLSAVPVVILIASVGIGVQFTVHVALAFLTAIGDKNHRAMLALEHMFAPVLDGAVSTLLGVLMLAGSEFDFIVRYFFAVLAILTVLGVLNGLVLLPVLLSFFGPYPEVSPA", "test": "two-color staining of yeast cells expressing the variants"}, "[3]": {"molecular_target": "T3, Human PTCH1 on HEPM cells (human, UniProt Q13635 1-1447)", "T3 sequence (looked up)": "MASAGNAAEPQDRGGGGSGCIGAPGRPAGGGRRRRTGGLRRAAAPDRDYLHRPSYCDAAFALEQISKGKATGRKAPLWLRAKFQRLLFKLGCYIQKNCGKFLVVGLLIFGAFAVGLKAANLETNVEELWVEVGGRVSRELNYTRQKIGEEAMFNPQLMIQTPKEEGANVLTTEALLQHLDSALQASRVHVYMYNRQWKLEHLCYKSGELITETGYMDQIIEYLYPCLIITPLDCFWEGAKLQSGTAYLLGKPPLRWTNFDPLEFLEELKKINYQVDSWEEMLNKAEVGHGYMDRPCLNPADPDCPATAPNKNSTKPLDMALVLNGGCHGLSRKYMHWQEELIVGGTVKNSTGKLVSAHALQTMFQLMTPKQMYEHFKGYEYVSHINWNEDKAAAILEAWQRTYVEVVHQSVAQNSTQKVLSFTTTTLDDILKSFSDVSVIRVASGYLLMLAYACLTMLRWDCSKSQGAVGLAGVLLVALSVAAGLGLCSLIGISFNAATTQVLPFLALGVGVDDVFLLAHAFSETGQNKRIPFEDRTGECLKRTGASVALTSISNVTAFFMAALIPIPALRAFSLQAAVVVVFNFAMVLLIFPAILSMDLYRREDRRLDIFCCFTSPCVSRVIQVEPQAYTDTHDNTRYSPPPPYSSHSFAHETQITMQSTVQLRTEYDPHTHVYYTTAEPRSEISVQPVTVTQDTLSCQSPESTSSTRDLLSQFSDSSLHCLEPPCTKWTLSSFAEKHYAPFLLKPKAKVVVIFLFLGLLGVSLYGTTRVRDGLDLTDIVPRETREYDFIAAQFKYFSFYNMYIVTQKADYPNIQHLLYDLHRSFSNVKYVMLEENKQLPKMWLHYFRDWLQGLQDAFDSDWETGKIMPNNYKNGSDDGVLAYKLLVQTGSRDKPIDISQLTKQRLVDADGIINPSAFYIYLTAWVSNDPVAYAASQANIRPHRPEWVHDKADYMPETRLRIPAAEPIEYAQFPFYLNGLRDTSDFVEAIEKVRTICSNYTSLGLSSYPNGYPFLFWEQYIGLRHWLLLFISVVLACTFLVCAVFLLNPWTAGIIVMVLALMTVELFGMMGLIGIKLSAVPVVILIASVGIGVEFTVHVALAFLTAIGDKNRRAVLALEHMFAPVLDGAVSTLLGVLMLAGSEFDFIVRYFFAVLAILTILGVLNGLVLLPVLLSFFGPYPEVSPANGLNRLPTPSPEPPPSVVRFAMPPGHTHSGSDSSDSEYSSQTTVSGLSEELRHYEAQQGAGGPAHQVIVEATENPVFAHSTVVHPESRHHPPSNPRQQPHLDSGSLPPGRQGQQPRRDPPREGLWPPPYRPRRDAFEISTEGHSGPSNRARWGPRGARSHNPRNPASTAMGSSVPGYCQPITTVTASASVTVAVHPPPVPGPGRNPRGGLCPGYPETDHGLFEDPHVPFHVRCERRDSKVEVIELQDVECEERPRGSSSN", "test": "cell-based or functional assay"}},
  "note": "Changes are numbered by the printed parent chain.",
  "data": [
    {"molecule": "ShhNp (ligand)", "values": [
      {"measurement": "EC50, Gli-luciferase assay in NIH-3T3 cells", "setting": "[1]", "result": 1.4, "unit": "nM"}
    ]},
    {"molecule": "B1", "values": [
      {"measurement": "binding result", "setting": "[2]", "result": "binds"}
    ]},
    {"molecule": "B2", "values": [
      {"measurement": "EC50, transcription of GLI1 in HEPM cells (qPCR)", "setting": "[3]", "result": 16, "unit": "nM"},
      {"measurement": "EC50, transcription of PTCH1 in HEPM cells (qPCR)", "setting": "[3]", "result": 18.5, "unit": "nM"},
      {"measurement": "EC50, Gli-dependent luciferase reporter in 3T3 cells", "setting": "[1]", "result": 8.6, "unit": "nM"},
      {"measurement": "EC50, Gli-luciferase assay in NIH-3T3 cells", "setting": "[1]", "result": 6.9, "unit": "nM"},
      {"measurement": "maximum response relative to ShhNp, Gli-luciferase assay", "setting": "[1]", "result": "~75", "unit": "%"}
    ]},
    {"molecule": "B3", "values": [
      {"measurement": "binding result", "setting": "[2]", "result": "binds"}
    ]}
  ]
}
